The values below come from publication doi:10.1101/2022.06.21.496751 (bioRxiv, 2022).

The labels stand for the following.
B1: Ab188 recombinant monoclonal antibody (IgG) (antibody, V domains shown)
VH: EVQLVESGGGLVQPGGSLRLSCAASGFTFINYKMNWVRQAPGKGLEWVSYISSGSDAIYYADSVKGRFTISRDNAKNSLYLQMNSLRDEDTALYYCARGGGYNYGECMDVWGQGTTVTVSS
VL: not shown
B2: Ab496 recombinant monoclonal antibody (IgG) (antibody, V domains shown)
VH: EVQLVQSGPEVKKPGTSVKVSCKASGFIFTNSAVQWVRQARGQRLEWIGWIVVGSGNPNYAQKFQERVTITRDRSTSTAYMELSSLTSEDTAVYYCAAFPYYYDNSGSGPWGQGTLVTVSS
VL: DIQLTQSPSSLSASVGDRVTITCQASQDIRNNLNWYQQIPGKAPKLLIYDASNLETGVPSRFSGSASGTDFTFTISSLQPEDVATYYCQQYANLPPFTFGPGTKVDIK
B3: Ab445 recombinant monoclonal antibody (IgG) (antibody, V domains shown)
VH: EVQLVESGGGVVQPGTSPRLSCAASGFTFSNSGMHWVRQAPGKGLEWVAVIWYDGSKKYYVDSVKGRFTISRDNSKNTLYLQMNSLRAEDTAVYYCARDGTVAVRGVMNPFFDYWGQGTLVTVSS
VL: DIQLTQSPSSLSASVGDRVTITCQASQDISNYLNWYQQIPGKAPKLLIYDASNLETGVPSRFSGSGSGTDFTFTISSLQPEDIATYYCQQYDNLPYTFGQGTKLEIK
B4: Ab354 recombinant monoclonal antibody (IgG) (antibody, V domains shown)
VH: QVQLVQSGAEVKKPGASVTVSCKASGFLFTGYYMHWVRQAPGQGLEWMGWINPNSGASNYTRKFQGRVTMTRDTSISATYMKLSRLTSDDTAVYYCARDLAFSMVRGALDYWGQGTLVTVSS
VL: QLVLTQPPSASGSPGQSVTISCTGTSSDVGGYNYVSWYQHHPGKAPKLMIYEVSKRPSGVPDRFSGSKSGNTASLTVSGLQAEDEADYYCNSYAGNNNWVFGTGTKVTVL
B5: Ab326 recombinant monoclonal antibody (IgG) (antibody, V domains shown)
VH: EVQLVESGGGVVQPGRSLRLSCAASGFTFSHYPMHWVRQAPGRGLEWVAVISYDGSNQHYVDSVKGRFTISRDNSKNTLYLQMNSLRAEDTAVYFCASLITMIRGVPDYWGQGTLVTVSS
VL: DIQMTQSPSSLSASVGDRVTITCRASQSISNYLNWYQQKPGKAPNLLIFAASSLQSGVPSRFSGSGSGTEFTLTISSLQPEDFAAYYCLQTYSTPRTFGQGTRLEIK
B6: Ab159 recombinant monoclonal antibody (IgG) (antibody, V domains shown)
VH: QVQLVESGGGLVKPGGSLRLSCAASGFTFNNAWMSWVRQAPGKGLEWVGRIKSKTDGGTTDYAAPVKGRFTFSRDDSKNTLYLQMSSLKTEDTALYYCTTADYDILTGTPASPYWGQGTLVTVSS
VL: DIQMTQSPSSLSASVGDRVTITCRASQSITNYLNWYQQKPGKAPKFLIYAASSLQGGVPSRFRGSGSGTDFTLTISSLQPEDFATYYCQQTYSTLWTFGQGTKVEIK

The first assay concerns the target Spike of the SARS-CoV-2 Omicron (BA.1) variant expressed on 293T cells (SARS-CoV-2, Omicron BA.1, strain). The experiment in a line: flow cytometry on cells.
For the molecule B1, the binding result is recorded as “binds”.

The target of the next assay is full-length Spike of SARS-CoV-2 (UniProtKB-P0DTC2) expressed on 293T cells (SARS-CoV-2, UniProt P0DTC2). The experiment in a line: flow cytometry on cells. On the technique in general: Flow cytometry measures light scatter and fluorescence of single cells or particles in a stream.
With B2, the binding result is reported as “binds”.

Take B3: the binding result is reported as “binds”. Regarding B4, the binding result is “binds”. B5: the binding result is recorded as “binds”. B1: the binding result is given as “binds”. B6: the binding result is “binds”.
